Square brackets hold non-standard residues; d marks the D form. Ends that are not written are not given here.
Biological target: recombinant N-terminal His6-tagged human FABP3 (human)
Experiment: MST; Monolith NT.115; 20 nM NT-650-NHS-labelled FABP3, unlabelled peptides 500 µM to 0.0153 µM in two-fold dilutions; 25 °C; PBS with 0.05% Tween 20, pH 7.4; 40% MST power, 60% LED power; 1:1 fit; triplicates

Sequence of recombinant N-terminal His6-tagged human FABP3 (human) (P05413 2-133): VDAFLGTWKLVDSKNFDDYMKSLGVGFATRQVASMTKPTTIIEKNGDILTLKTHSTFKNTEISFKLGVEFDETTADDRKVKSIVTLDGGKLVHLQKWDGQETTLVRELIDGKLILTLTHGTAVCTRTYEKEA

Kd | fold lower binding affinity compared to A-CooP | Binder
70 nM | – | ACGLSGLGVAK-NH2 [A-CooP-K]
133000 nM | – | ACGLSGLAVA-NH2 [A-[Ala^7]CooP]

Continued, binder first:

Binder | Kd | fold lower binding affinity compared to A-CooP
ACGLSGLGVA-NH2 [A-CooP] | 2180 nM | –
[dA][dV]G[dL]G[dS][dL]G[dC][dA]-NH2 (N-terminus assumed; SMILES CC(C)C[C@@H](NC(=O)CNC(=O)[C@H](NC(=O)[C@@H](C)N)C(C)C)C(=O)NCC(=O)N[C@H](CO)C(=O)N[C@H](CC(C)C)C(=O)NCC(=O)N[C@H](CS)C(=O)N[C@H](C)C(N)=O) [RI-A-CooP] | – | 10 fold
KACGLSGLGVA-NH2 [KA-CooP] | 630 nM | –

From paper PMC7409020, “Tumor-Targeting Peptides: The Functional Screen of Glioblastoma Homing Peptides to the Target Protein FABP3 (MDGI)” (Cancers, 2020)
